Results as given in US20070031832A1.

What was measured:
[1] = target: anti-Der p 1 monoclonal antibody 2C7; test: T7-DELFIA, comparison phage on 2C7-coated wells, time resolved fluorometry
[2] = target: anti-Der p 1 monoclonal antibody 2C7; test: T7-DELFIA, 50 µl phage lysate on 2C7-coated wells, time resolved fluorometry

TRF [1] [TRF]	TRF [2] [TRF]	Molecule
500		T7wt
	64000	GDPNSSSVDKLGYWRVTESSNE (peptide, not shown: large carriers) [2c7pan42]

More lines, now with the values behind:

Molecule	TRF [1] [TRF]	TRF [2] [TRF]
GDPNSSTSPR (peptide, not shown: large carriers) [2c7pan8]		1900
GDPNSRGKSREYLS (peptide, not shown: large carriers) [2c7pan14]		1800
GDPNSASGTA (peptide, not shown: large carriers) [2c7pan9]		17000
GDPRTHR (peptide, not shown: large carriers) [2c7pan26]		8500
